Article PMC6365968 (Cell, 2018)

T1: human LAG3-Ig (immunoglobulin Fc-tagged LAG3 extracellular domain fusion protein) (human, UniProt P18627 23-450)
T1 sequence (looked up): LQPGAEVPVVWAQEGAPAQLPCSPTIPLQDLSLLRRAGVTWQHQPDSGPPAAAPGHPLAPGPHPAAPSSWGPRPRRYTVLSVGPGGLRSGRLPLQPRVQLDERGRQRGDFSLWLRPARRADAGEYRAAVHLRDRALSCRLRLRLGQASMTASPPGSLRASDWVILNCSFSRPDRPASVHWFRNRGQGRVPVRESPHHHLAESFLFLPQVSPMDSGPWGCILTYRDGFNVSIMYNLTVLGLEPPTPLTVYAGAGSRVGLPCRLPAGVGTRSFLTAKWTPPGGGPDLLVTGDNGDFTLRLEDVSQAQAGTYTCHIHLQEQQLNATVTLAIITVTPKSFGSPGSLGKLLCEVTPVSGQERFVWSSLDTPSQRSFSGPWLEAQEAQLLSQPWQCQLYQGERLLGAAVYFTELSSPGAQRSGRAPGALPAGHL

T2: mouse LAG3-Ig (Fc-tagged mouse LAG3 extracellular domain fusion protein) (mouse, UniProt Q61790 24-442)
T2 sequence (looked up): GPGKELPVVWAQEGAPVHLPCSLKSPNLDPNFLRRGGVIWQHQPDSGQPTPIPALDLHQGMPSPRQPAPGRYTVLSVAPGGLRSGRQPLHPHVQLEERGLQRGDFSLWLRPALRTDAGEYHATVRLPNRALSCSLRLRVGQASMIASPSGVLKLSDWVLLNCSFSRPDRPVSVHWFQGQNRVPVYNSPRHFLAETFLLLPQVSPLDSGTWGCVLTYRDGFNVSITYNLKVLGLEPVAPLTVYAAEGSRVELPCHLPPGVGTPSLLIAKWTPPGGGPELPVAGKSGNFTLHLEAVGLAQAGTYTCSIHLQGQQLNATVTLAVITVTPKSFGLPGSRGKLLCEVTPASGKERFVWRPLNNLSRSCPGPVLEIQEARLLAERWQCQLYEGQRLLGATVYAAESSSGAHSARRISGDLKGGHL


Experiments:
[1] = target: T1, human LAG3-Ig (immunoglobulin Fc-tagged …); experiment: BLI
[2] = target: T2, mouse LAG3-Ig (Fc-tagged mouse LAG3 …); experiment: BLI
[3] = target: the molecule itself; experiment: SEC-MALS

Binder | binding result [1] | Kd [2] | stoichiometry N [3]
FLAG-tagged human FGL1 (ligand, UniProt Q08830 23-312, looked up) LEDCAQEQMRLRAQVRLLETRVKQQQVKIKQLLQENEVQFLDKGDENTVIDLGSKRQYADCSEIFNDGYKLSGFYKIKPLQSPAEFSVYCDMSDGGGWTVIQRRSDGSENFNRGWKDYENGFGNFVQKHGEYWLGNKNLHFLTTQEDYTLKIDLADFEKNSRYAQYKNFKVGDEKNFYELNIGEYSGTAGDSLAGNFHPEVQWWASHQRMKFSTWDRDHDNYEGNCAEEDQSGWWFNRCHSANLNGVYYSGPYTAKTDNGIVWYTWHGWWYSLKSVVMKIRPNDFIPNVI | binds | – | –
FLAG-tagged mouse FGL1 (ligand, UniProt Q71KU9 23-314, looked up) LESESCLREQVRLRAQVHQLETRVKQQQTMIAQLLHEKEVQFLDKGSENSFIDLGGKRQYADCSEIYNDGFKQSGFYKIKPLQSLAEFSVYCDMSDGGGWTVIQRRSDGSENFNRGWNDYENGFGNFVQNNGEYWLGNKNINLLTIQGDYTLKIDLTDFEKNSSFAQYQSFKVGDKKSFYELNIGEYSGTAGDSLSGTFHPEVQWWASHQRMKFSTWDRDNDNYQGNCAEEEQSGWWFNRCHSANLNGVYYRGSYRAETDNGVVWYTWHGWWYSLKSVVMKIRPSDFIPNII | – | ~1.5 nM | 2
